Test results: US5849535A (Genentech, Inc., priority 1996, dated 1998)

Legend:
[1] = tested on: IGF-I levels; experiment: Single-dose pharmacodynamics, IGF-I levels in Rhesus monkeys; type: in vivo; conditions: single dose 1 mg/kg intravenously or subcutaneously; seven-day study
Description: The placebo was 0.5 ml formulation buffer administered subcutaneously. IGF-1 levels were determined as in Example XIII.

[2] = In vivo half-life of pegylated wild-type hGH in rats
[3] = molecular target: T1, hGHbp (Homo sapiens, UniProt P10912); conditions: Lowman et al., J. Biol. Chem.; cited from earlier work
T1 construct: the extracellular domain of its receptor (hGHbp)
T1 sequence (P10912 19-256 limits assumed): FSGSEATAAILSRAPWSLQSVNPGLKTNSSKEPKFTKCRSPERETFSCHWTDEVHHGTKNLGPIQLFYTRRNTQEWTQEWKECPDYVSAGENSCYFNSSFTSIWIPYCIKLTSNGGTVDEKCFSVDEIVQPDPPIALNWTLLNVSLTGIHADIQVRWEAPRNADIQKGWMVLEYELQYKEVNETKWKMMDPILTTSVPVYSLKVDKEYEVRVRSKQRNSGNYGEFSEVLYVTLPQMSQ

## PEG-4/5-B2036: B2036 preparation containing primarily conjugates with four and five PEG(5000) groups
[1]
  IGF-I levels after single injection: reduced at one day after administration, continued to decrease until four days after administration, and remained low throughout the seven-day study

## conjugate containing five PEG(5000) groups: pegylated wild-type hGH, approximately 48 kD
[2]
  longer half-life than the non-pegylated protein: ~11 fold

## conjugate containing seven PEG groups: pegylated wild-type hGH, approximately 57 kD
[2]
  longer half-life than the non-pegylated protein: ~18 fold

## wild-type hGH conjugate containing two PEG(5000) groups: pegylated wild-type hGH, approximately 33 kD
[2]
  longer half-life than the non-pegylated protein: ~4 fold

B1: human placental lactogen (protein, UniProt P0DML2 27-217, looked up)
Chorionic somatomammotropin …: VQTVPLSRLFDHAMLQAHRAHQLAIDTYQEFEETYIPKDQKYSFLHDSQTSFCFSDSIPTPSNMEETQQKSNLELLRISLLLIESWLEPVRFLRSMFANNLVYDTSDSDDYHLLKDLEEGIQTLMGRLEDGSRRTGQILKQTYSKFDTNSHNHDALLKNYGLLYCFRKDMDKVETFLRMVQCRSVEGSCGF
[3]
  binds weaker than hGH: ~ 2000 fold
